The target in assay [1] is interface II mutations (CC2N and C2B variants, ITC). Briefly: ITC.
Assay [2] addresses liprin-α2_CC2N E380R (human) (UniProt O75334). Nature of the assay: ITC. (Isothermal titration calorimetry measures the heat released or taken up as one component is titrated into another.)
A further assay concerns the target RIM1_C2B (rat). Briefly: SEC-MALS.

The values that follow come from publication doi:10.1101/2024.08.29.610253.

Chain of liprin-α2_CC2N E380R (human) (O75334 300-404 E380R): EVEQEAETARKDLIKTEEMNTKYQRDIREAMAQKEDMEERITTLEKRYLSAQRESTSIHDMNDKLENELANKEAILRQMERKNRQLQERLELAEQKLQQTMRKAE

Broadly, the stoichiometry N is the number of molecules, sites or subunits per partner or assembly. In the case of RIM1_C2B (domain or fragment), the values for the fold decrease in binding affinity in assay [1] and in assay [2] were 5 fold and 2 fold, respectively. In addition, the stoichiometry N with RIM1_C2B (rat) came out at 2.
